Columns and labels:
[1] = biological target: T1, HSP90 (endogenous, from MDA-MB-231 cells and MDA-MB-231 xenograft tumor lysates) (human, UniProt P08238 2-724); test: immunoprecipitation from MDA-MB-231 xenograft tumor lysates, immunoblot with commercial HSP90 antibody
T1 construct: The isoform is not resolved in these experiments; HSP90α (P07900) may also be present; also called cell surface HSP90
Protocol: RIPA lysates of xenograft tumor pieces were used for immunoprecipitation with 15 μg of HCAb1 and HCAb2. Immunoprecipitated HSP90β protein was detected on an immunoblot using commercial HSP90 antibody. […] Equal amounts of HCAb1 and HCAb2 were pulled down as detected by anti-mouse IgG antibody.
Xenograft tumor pieces were placed in 500 μL of 1% Triton™ X-100+0.1% SDS/PBS lysis buffer supplemented with 0.2 mM sodium orthovanadate and fresh protease inhibitor cocktail (1:100) and homogenized using polytron homogenizer for 30 sec −1 min on ice. Homogenates were spun at 14,000 rpm for 20 min at 4° C. and supernatants were used for immunoprecipitation.
We also wanted to determine if HCAb2 can bind to HSP90 from the xenograft tumor lysates. Xenograft tumor pieces were homogenized and incubated with exogenous HCAb1 and HCAb2. Immunoprecipitated proteins were detected using the commercial HSP90 antibody. […] In summary, we observed that HCAb2 bound preferentially to a small population of MDA-MB-231 xenograft tumor cells in comparison to the normal mouse tissues and also pulled down HSP90 from xenograft tumor lysates.

Clathrin heavy chain 1 = biological target: T2, Clathrin heavy chain 1 (UniProt Q00610 2-1675); test: immunoprecipitation from MDA-MB-231 1% Triton X-100 lysate, gel band identified by LC-MS/MS
T2 construct: Endogenous protein, immunoprecipitated from cell lysate and stained in permeabilized MCF7 cells; also called CLTC
Protocol: FIGS. 3 A and B show immunoprecipitation of respective target antigens by HCAb1 and HCAb2. 20 μg of HCAb1 and HCAb2 were used to immunoprecipitate the target antigens from 1% Triton X-100 (A) or 1% Triton X-100+0.1% SDS (B) MDA-MB-231 lysates. The immunoprecipitated proteins were run on a reducing SDS-PAGE gel and the proteins in the gel were stained with SYPRO® Ruby stain. * indicates the specific band for HCAb1 (A) and HCAb2 (B).
In order to determine the antigens recognized by the HCAbs, we performed immunoprecipitation of the antigens followed by protein identification using mass spectrometry. We chose MDA-MB-231 cell lysates since the respective target antigens for both HCAb1 (FIG. 1L) and HCAb2 (FIGS. 1C, 1I and 1O) were abundant in MDA-MB-231 cells. The immunoprecipitated proteins were run on a reducing SDS-PAGE gel and visualized using SYPRO® Ruby stain. […] Furthermore, these buffer conditions were unfavorable for HCAb1 to immunoprecipitate the band seen previously (FIG. 3A) in the buffer lacking SDS.
The specific gel bands (*) observed in FIGS. 3A and 3B were excised and the tryptic peptides were analyzed by mass spectrometry. Peptides identified from the analysis were used to search the SwissProt database to obtain the list of target proteins. Tables 1 and 2 list the top five proteins identified from the HCAb1 and HCAb2 immunoprecipitated bands, respectively. […]

Recombinant human HSP90β = biological target: T3, Recombinant human HSP90β (human, UniProt P08238 1-724, limits assumed); test: immunoprecipitation of recombinant HSP90β, immunoblot with commercial HSP90 antibody
T3 construct: Bought protein; also called heat shock protein HSP 90-beta; HSP90AB1
Protocol: FIGS. 4 A and B show a validation of the target antigens of HCAb1 and HCAb2. […] Immunoprecipitation of HSP90 was performed from cytosolic and plasma membrane (PM) fractions using HCAb2. The immunoprecipitated HSP90 was detected using a commercial HSP90 antibody. […] HCAb1 and HCAb2 (5 μg each) were used to immunoprecipitate recombinant HSP90β (1 μg) resuspended in either 1% Triton X-100+0.1% SDS or 1% Triton X-100+1% SDS buffers. The immunoprecipitated HSP90β protein was detected using a commercial HSP90 antibody. Equal amounts of HCAb1 and HCAb2 were pulled down as detected by anti-mouse IgG antibody.
The list of proteins identified for HCAb2 contained both HSP90α and HSP90β isoforms with HSP90β being the highest scoring protein (Table 2). […] Of the 45 peptides, 3 peptides were unique to HSP90α, while 15 peptides were unique to HSP90β and the remaining 27 peptides were common to both the isoforms. […] To test this, we used recombinant human HSP90β (highest scoring protein from Table 2) to determine the specificity of HCAb2. HCAb1 and HCAb2 were examined for their ability to immunoprecipitate HSP90β and the presence of HSP90β detected using the commercial HSP90 antibody. […] This interaction was abolished when the SDS concentration was elevated from 0.1% to 1%. […]

T1 sequence (P08238 2-724 limits assumed): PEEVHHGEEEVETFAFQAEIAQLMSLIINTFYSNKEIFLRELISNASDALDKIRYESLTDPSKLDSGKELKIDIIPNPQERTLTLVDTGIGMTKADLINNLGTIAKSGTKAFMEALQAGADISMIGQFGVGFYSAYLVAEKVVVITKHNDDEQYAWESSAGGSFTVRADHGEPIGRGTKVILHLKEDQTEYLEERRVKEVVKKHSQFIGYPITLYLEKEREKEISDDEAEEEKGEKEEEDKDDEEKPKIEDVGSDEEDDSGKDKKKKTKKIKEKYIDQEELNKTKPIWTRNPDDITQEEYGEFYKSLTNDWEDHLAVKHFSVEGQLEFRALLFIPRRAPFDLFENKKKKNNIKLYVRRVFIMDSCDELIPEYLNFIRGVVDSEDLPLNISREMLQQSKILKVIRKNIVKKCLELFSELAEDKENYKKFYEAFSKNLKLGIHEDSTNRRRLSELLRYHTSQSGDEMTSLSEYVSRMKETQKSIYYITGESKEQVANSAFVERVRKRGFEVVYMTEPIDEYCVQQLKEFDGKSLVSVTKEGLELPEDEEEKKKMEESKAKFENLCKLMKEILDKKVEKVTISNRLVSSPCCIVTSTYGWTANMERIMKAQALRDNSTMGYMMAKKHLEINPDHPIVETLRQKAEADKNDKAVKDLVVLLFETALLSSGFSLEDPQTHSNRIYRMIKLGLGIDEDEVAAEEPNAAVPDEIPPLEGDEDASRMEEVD
T3 sequence (P08238 whole entry): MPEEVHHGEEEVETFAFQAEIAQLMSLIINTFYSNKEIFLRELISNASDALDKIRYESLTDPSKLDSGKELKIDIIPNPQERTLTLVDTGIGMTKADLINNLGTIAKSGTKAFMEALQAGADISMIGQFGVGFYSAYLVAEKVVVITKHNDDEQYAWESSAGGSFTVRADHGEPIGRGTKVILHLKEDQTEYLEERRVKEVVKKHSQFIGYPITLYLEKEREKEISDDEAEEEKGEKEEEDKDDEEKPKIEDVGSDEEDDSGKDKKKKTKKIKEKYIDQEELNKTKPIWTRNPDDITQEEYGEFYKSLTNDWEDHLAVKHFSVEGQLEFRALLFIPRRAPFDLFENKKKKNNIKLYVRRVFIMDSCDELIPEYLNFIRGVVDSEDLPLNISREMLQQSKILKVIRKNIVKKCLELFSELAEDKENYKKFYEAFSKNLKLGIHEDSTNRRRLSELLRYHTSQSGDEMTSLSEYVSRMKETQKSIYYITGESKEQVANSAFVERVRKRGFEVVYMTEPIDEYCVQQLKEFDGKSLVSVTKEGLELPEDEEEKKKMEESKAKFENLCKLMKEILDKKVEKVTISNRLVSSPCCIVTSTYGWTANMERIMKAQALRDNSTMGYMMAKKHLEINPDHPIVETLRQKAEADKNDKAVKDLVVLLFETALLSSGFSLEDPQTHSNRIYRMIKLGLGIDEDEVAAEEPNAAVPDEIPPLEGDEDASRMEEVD
T2 sequence (Q00610 2-1675 limits assumed): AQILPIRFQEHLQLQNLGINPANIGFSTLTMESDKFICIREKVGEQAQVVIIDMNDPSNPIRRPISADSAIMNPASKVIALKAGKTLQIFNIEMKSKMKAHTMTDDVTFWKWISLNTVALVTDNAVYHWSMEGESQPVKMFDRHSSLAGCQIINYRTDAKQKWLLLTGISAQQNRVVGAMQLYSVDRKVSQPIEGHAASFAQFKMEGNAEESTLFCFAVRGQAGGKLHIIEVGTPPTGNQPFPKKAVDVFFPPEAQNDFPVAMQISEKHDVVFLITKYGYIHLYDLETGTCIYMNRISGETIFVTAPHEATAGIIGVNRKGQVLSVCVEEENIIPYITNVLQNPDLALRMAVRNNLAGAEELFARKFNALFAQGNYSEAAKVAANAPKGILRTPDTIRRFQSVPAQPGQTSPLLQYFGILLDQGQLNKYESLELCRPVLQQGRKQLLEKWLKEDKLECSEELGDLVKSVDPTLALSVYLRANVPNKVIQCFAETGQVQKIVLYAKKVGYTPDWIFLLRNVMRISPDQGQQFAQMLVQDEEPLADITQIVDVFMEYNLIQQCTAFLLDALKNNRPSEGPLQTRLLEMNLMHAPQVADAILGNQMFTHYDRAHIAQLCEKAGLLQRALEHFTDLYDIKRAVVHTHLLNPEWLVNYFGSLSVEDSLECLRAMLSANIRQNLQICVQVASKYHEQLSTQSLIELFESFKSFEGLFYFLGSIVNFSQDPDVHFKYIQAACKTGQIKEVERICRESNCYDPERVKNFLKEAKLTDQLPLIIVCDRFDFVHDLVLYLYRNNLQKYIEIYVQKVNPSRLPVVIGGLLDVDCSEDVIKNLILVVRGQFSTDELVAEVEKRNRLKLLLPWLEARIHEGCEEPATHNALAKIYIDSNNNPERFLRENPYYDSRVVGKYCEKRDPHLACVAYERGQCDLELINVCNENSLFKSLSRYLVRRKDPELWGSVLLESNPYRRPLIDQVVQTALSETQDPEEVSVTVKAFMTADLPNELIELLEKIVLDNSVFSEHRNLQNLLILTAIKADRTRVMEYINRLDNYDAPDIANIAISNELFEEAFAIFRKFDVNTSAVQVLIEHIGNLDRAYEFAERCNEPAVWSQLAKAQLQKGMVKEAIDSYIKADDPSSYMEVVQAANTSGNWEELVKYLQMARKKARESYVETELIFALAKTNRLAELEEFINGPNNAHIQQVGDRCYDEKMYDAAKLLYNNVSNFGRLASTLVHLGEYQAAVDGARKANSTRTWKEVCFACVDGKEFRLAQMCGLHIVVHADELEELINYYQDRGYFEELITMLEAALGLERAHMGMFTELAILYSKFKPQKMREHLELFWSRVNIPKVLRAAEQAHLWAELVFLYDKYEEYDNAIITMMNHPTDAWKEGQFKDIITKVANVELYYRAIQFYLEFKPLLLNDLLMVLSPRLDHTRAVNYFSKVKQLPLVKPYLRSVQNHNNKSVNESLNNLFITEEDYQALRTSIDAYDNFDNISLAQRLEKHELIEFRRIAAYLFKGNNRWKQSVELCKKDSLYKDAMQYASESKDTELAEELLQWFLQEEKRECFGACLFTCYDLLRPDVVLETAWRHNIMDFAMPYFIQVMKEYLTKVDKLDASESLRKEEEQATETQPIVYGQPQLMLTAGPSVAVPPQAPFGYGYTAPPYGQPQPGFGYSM

B1: HCAb1 (Fc fusion)
heavy: QVQLVQSGGGLVQPGGSLRLSCAASGFTFSSYAMSWVRQAPGKGLEWVSAISGSGGSTYYADSVKGRFTISRDNSKNTLYLQMNSLRAEDTAVYYCARQEGQWLVQIDYWGQGTLVTVSS
notes: Human VH fused to the mouse Fc domain, no light chain, bivalent; It served as the control antibody for HCAb2; also called heavy chain antibody 1; not shown: mouse Fc domain from vector pCMV6-AC-FC-S (OriGene), with any junction residues encoded by the PCR primers
[1]
  binding result: no binding (tested: 15 µg of HCAb1)
Clathrin heavy chain 1
  binding result: binds
Recombinant human HSP90β
  binding result: no binding (tested: 1 µg HSP90β)

Source: patent publication US20180002412A1 (UNIVERSITY OF CONNECTICUT, published 2018)
